The values that follow come from the nanobody polyreactivity screen of Harvey et al. (2022).

This series can be described thus: yeast display, Sf9 membrane polyspecificity reagent, FACS + sequencing; frameworks hold sequencing errors. In a few lines:
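Galactose induction of a Saccharomyces cerevisiae BJ5465 synthetic nanobody display library ran 36–48 hours. The cells were then stained for 1 hour at 4 °C with 10% biotinylated, detergent-solubilized Sf9 membrane reagent, pulled down on streptavidin microbeads and FACS-sorted into low and high (top ~1%) gates on expression and reagent-binding fluorescence. Labels for polyreactivity follow the gate of origin.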
On to “QVQLVESGGGLVQAGGSLRLICAASGFIFFGNALGWYRQAPGKERELVAVITWSGGSTYADSVKGRFTISRDNAKNTVYLLMNSLKPEDTAVYYCAFVTPYWSFYEQVIPSNYWGQGTQVTVSS”, for which the “polyreactivity (PSR sort gate)” value is on record as “low polyreactivity”.
The entry for “QVQLVESGGGLVQAGGSLRLICAASGFIFFINDMGWYRQAPGKERELVAAISWSCGSTYYADSVKGRFTISRDNAKNTVYLQMNSLKPEDTAVYYCNTDVPTAQYDYWGQGTQVTVSS” is “low polyreactivity”; for “QVQLVESGGGLVQAGGSLRLICAASGFIFLVNAMGWYRQAPGKERELVAAISLSTTSTYYADSVKGRFTISRDNAKNTVYLQMNSLKPEDTAVYYCAADHWGVGAPTYGQYTTHDYWGQGTQVTVSS” it is “low polyreactivity”; for “QVQLVESGGGLVQAGGSLRLICAASGFTFADNSMAWYRQAPGKEREFVASITYSTGSTYADSEKGRVTISRDNAKNTVYLEMHSLKPEDTAVYYCAVDNISNWAVENDDWGQGTLVTVSS” it is “low polyreactivity”.
The entry for “QVQLVESGGGLVQAGGSLRLICAASGFTFCLYAMGWYRQAPGKERELVADIDWDGGTYYADSVKGRFTISRDNAKNTVYLQMNSLKPEDTAVYYCAAELTEWTNGFDYWGQGTQETVSS” is “high polyreactivity”; for “QVQLVESGGGLVQAGGSLRLICAASGFTFDFYAMGWYRQAPGKERELVATISYSGASTYYADSVKGRFTISRDNAKNTVYLEMNSLKPEVTAVYYCAAYYPTRYQYGTIWVAYNYWGQGTQVTVSS” it is “low polyreactivity”; for “QVQLVESGGGLVQAGGSLRLICAASGFTFGPYDMGGYRQAPGKERELVAAITDSSGSTHYADSVKGRFTISRDNAKNTVYLQMNSLKPEDTAVYYCAASDVVFALNGYYPGEDDYWGQGTQVTVSS” it is “low polyreactivity”.
Under “QVQLVESGGGLVQAGGSLRLICAASGFTFPSYAMGWYRQAPGKEREFVAGITKGGGNTYYADSVKGRFTISRDNAKNTVYLQMNSLIPEDTAVYYCAADRSSFYWSHGTVYGYDYWGQGTQVTVSS” stands “low polyreactivity”; under “QVQLVESGGGLVQAGGSLRLICAASGFTFPWNVMGWYRQAPGKERELVAAITYDGGGTYADSVKGRFTISRDNAKNTVYLQMNSLKPEDTAVYYCNADLIYGEEYDYWGQGTQVTVSS”, “low polyreactivity”; under “QVQLVESGGGLVQAGGSLRLICAASGFTFPWYAMGWYRQAPGKERELVATITSGGRTNYADSVKGRFTISRDNAKNTVYLQMNSLKPEDTAVYYCAARASKYSYRTDPWHGDYWGQGTQVTVSS”, “high polyreactivity”.
On to “QVQLVESGGGLVQAGGSLRLICAASGFTFSYYAMGWSRQAPGKERELVAANSWSGTSTYYADSVKGRFTISRDNAKNTVYLQMNSLKPEDTAVYYCAAGYSASRKVDYRGQGTQVTVSS”, for which the “polyreactivity (PSR sort gate)” value is reported as “high polyreactivity”.
For the sequence “QVQLVESGGGLVQAGGSLRLICAASGGIFNYYAMGWYREAPGKERELVAAISASGGSTYYADSVKGRFTISRDNAKNTVYLQMNSLKPEDTAVYYCAAGLPYGYGYDYWGQGTQVTVSS”, the “polyreactivity (PSR sort gate)” value is given as “low polyreactivity”.
The entry for “QVQLVESGGGLVQAGGSLRLICAASGGIFTRNDMGWYRQAPGKERELVAGISWRGGSTYYADSVKGRFTISRDNAKNTVYLQMNSLKPEDTAVYYCAALDTGGERDYWGQGTQVNVSS” is “low polyreactivity”; for “QVQLVESGGGLVQAGGSLRLICAASGGIFVYYAMGWYRQAPGKERELVAAISSGGTTNYADSVKGRFTISRDNAKNTVYLQMNSLKPEDTAVYYCAIYVSWPLYYYWGQCTQVTVSS” it is “low polyreactivity”.
As to “QVQLVESGGGLVQAGGSLRLICAASGGTFWIYAMGWYRQAPGKERELVAGITTSGATTYYADSVKGRFTISRDNAKNTVYLQMNSLKPEDTAVYYCAADEYYRYEYWGQGTQVTVSS”, the “polyreactivity (PSR sort gate)” value was “low polyreactivity”.
The entry for “QVQLVESGGGLVQAGGSLRLICAASGIIFSDYAMGWYRQAPGKERELVAAITGGGSTYYADSVKGRFTISRDNAKNTVYLQMNSLKPEDTAVYYCNADTWGFTYYYWGQGTQVTVSS” is “low polyreactivity”; for “QVQLVESGGGLVQAGGSLRLICAASGIIFWAYDMGWYRQAPGKERELVAAITWGGGSTYYADSVKGRFTISRDNAKNTVYLQMNSLKPEDTAVYYCAADRYVFQGYGPEVDYWGQGTQVTVSS” it is “low polyreactivity”; for “QVQLVESGGGLVQAGGSLRLICAASGITFRRYGMGWYRQAPGKERELVATITSSVGSRTYYADSVKGRLTISRDNAKNTVYLQMNSLKPEDTAVYYCAADHRVYDYEYWGQGTQVTVSS” it is “low polyreactivity”.
The entry for “QVQLVESGGGLVQAGGSLRLICAASGLIFYKYAMGWYRQAPGKERELVAAITSGGSTNYADSVKGRFTISRDNAKNSVYLQMNSLKPEVTAVYYCNADYNHYLVVRWWYPPVDYWGQGSQVTVSS” is “low polyreactivity”; for “QVQLVESGGGLVQAGGSLRLICAASGLILKNYAMGWYRQAPGKERELVAAITRSGGSTYYADSVKGRFTISRDNAKNTVYLQMNSLKPEDTAVYDCAARNPSGKGRYDYWGQGTQVTVSS” it is “high polyreactivity”.
For “QVQLVESGGGLVQAGGSLRLICAASGLTFGSYAMGWYRQAPGKERELVAAISRSGGSTYYADSVKGRFTISRDNAKNTVYLQMNSLKPEDTAVYYCNAVNPYYAPTDRRVGYDYWGQGTQVTVSS”, the “polyreactivity (PSR sort gate)” value was “high polyreactivity”.
As to “QVQLVESGGGLVQAGGSLRLICAASGLTFLNNAMGSYRQAPGKERELVAAISDGGSTNYADSVKGRFTISRDNAKNTVYLQMNSLKAEDTAVYYCAAVYTSASSGSWGQGTQVTVSS”, the “polyreactivity (PSR sort gate)” value was “low polyreactivity”.
Consider “QVQLVESGGGLVQAGGSLRLICAASGLTFPTYAMAWYRQAPGKERELVAAISRIGGRTYYADSVKGRFTISRDNAKNTVYLQMNSLKPEETAVYYCAADGIKGGVEYDYWGQGTQVTVSS”, for which the “polyreactivity (PSR sort gate)” value was “high polyreactivity”.
For “QVQLVESGGGLVQAGGSLRLICAASGLTFRVYTMGWYRQAPGQERELVASISRSGASTYYADSVKGRFTISRDNAKNTVYLQMNSLKPEDTAVYYCNAVTSWPRRDFDYWGQGTQVTVSS”, the “polyreactivity (PSR sort gate)” value is reported as “high polyreactivity”.
The entry for “QVQLVESGGGLVQAGGSLRLICAASGLTSGLNAMGWYRPAPGKERELVATIRTNGGSTYYADSVKGRFTISRDNAKNNVYLQMNSLKPEDTAVYYCAADDKGGFAVEYDYWGQGTQVTVSS” is “low polyreactivity”.
Under “QVQLVESGGGLVQAGGSLRLICAASGNIFTYYAMGWYRQAPWKERELVAAISSGDSTNYADSVKGRFTISRDNAKNTVYLQMNSLKPEDTAVYYCNVDRVPSRRYYAQKGYFRYYYWGQGTQVTVSS” stands “high polyreactivity”; under “QVQLVESGGGLVQAGGSLRLICAASGRIFFVNAMGWYRQAPGKERELVAAISRSAGRTYYADSVKGRFTISRDNAKNTVYLQMNSLKPEDTAVYYCATEGRTDYNREMEYWGQGTQVTVSS”, “low polyreactivity”.
The entry for “QVQLVESGGGLVQAGGSLRLICAASGRIFGFNAMGWYRQAPGKERELVAAISGRSGRTYYADSVKGRFTISRDNAKITVYLQMNSLKPEDTAVYYCNTVGYRGPSWYDYWGQGTQVTVSS” is “high polyreactivity”; for “QVQLVESGGGLVQAGGSLRLICAASGRIFGKNDMGWYREAPRKEREFVATIDWSGGSTYYADSVKGRFTISRDNAKNTVDLQMNSLIPEDNAVYYCAARQYWTTDLPFQRYYYWGQGTQVTVSS” it is “low polyreactivity”.
Turning to “QVQLVESGGGLVQAGGSLRLICAASGRIFGRYTMGWYRQAPGKETELVAGITYSGGSTYYADSVKGRFTISRDNAKNTVYLQMNSLKPEDTAVYYCAARWRGSGGFDYWGQGTQVTVSS”, the “polyreactivity (PSR sort gate)” value is on record as “high polyreactivity”.
Under “QVQLVESGGGLVQAGGSLRLICAASGRIFGYNAMGWYRQEPGKERELVAAISSGGSTYYADSVKGRFTISRDHAKNTVYLQMNSLKPEDTAVYYCAAEDYPPYTTEYDYWGQGTQVTVSS” stands “low polyreactivity”.
In the case of “QVQLVESGGGLVQAGGSLRLICAASGRIFGYYAMGWYRQAPGKERELVAAISRAGSTYYADSVKGRFTISRDNAKNTVSLQMNSLKPEDTAVYYCAAVRSVQRHYTEMYYWGQVTQVTVSS”, the “polyreactivity (PSR sort gate)” value is given as “high polyreactivity”.
Under “QVQLVESGGGLVQAGGSLRLICAASGRIFGYYAMGWYRQAPGKERELVATITFGGGSSYYADSVKGRFTISRDNAKNTVNLQMNSLKPEDTAVYYCAAVSGYLGIYGDEYSWGQGTQVTVSS” stands “low polyreactivity”.
The entry for “QVQLVESGGGLVQAGGSLRLICAASGRIFGYYTMGRYRQAPGKERELVADNNRDGSTYADSVKGRFTISRDNAKNSVYIQMNSLKPEDTAVYYCIAQYDSAYGLGFFIGYFSQYDYWGQGTQVTVSS” is “low polyreactivity”; for “QVQLVESGGGLVQAGGSLRLICAASGRIFHGNAMGWYRQAPGKERELVAAISRRGGSTYYADSVKGRFTISRDNAKNTVYLQMNSLKPEDTAVYYCASVYYNGIRYGYWGQGTQVTVSS” it is “high polyreactivity”.
Under “QVQLVESGGGLVQAGGSLRLICAASGRIFKINAMGWYRQAPGKERELVAGISGSGSDTYYADSVKGSFTISRDNAKYTVYLQMNSLKPEDTAVYYCAAVAYDWALFYYWGQGTQVTVSS” stands “low polyreactivity”.
As to “QVQLVESGGGLVQAGGSLRLICAASGRIFLNSTMGSYRQEPGKERELVADITWRGGSTYYADSVKGRFTISRDNAKNTVYLQMNSLKPEDTAVYYWNAVSVSSKRSDYWVQGTQVTVSS”, the “polyreactivity (PSR sort gate)” value is “low polyreactivity”.
Under “QVQLVESGGGLVQAGGSLRLICAASGRIFRYNALGWYRQAPGKERELVATISGTSRTKYADSVKGRFTISRDNAKHTVYLQMNSLKPEDTAVYYCAARRYGWGRAQSSASYDHWGQGTQVTVSS” stands “high polyreactivity”.
Regarding “QVQLVESGGGLVQAGGSLRLICAASGRIFRYYAMGWYRQAPGKERELVAAISYSGGSTYYADSVKGRFTISRDNEKNTVYLQMNILKPEDTAVYYCNAGSWKSYYSTVRYLTYSMYYWGQGTQVTVSS”, the “polyreactivity (PSR sort gate)” value is reported as “high polyreactivity”.
The entry for “QVQLVESGGGLVQAGGSLRLICAASGRIFSGNTMGWYRQAPGKERELVAAISKSGGRTYYADSVKGRFTISRDNAKYTFYLQMNSLKPEDTAVYYCNADYRSHYLYDYWGQGTQVTVSS” is “low polyreactivity”.
